From patent publication US9493781B2, “Synthetic brassica-derived chloroplast transit peptides” (DOW AGROSCIENCES LLC, priority 2012, dated 2016)

Assays:
[1] = system: chloroplasts of tobacco cells; test: Tobacco transient assay: confocal microscopy of TraP-YFP localization; assay type: cell-based, Nicotiana benthamiana; settings: Agrobacterium-infiltrated tobacco leaves
Excerpt: The Trap8 and TraP9 chimeric chloroplast transit peptide sequences were initially tested via a transient in planta assay. Polynucleotide sequences which encode the Trap8 (SEQ ID NO:5) and TraP9 (SEQ ID NO:6) chimeric chloroplast transit peptide sequences were synthesized. A linker sequence (SEQ ID NO:7) was incorporated between the TraP sequence and the yfp coding sequence. The resulting constructs contained two plant transcription units (PTU). The first PTU was comprised of the Arabidopsis thaliana Ubiquitin 10 promoter (AtUbi10 promoter; Callis, et al., (1990) J. Biol. Chem., 265: 12486-12493), TraP-yellow fluorescent protein fusion gene (TraP-YFP; US Patent App. 2007/0298412), and Agrobacterium tumefaciens ORF 23 3′ untranslated region (AtuORF23 3′UTR; U.S. Pat. No. 5,428,147). […]
Agrobacterium-infiltrated tobacco leaves were severed from the plant, and placed into a petri-dish with water to prevent dehydration. The infiltrated tobacco leaves were observed under blue light excitation with long-pass filter glasses held in place using a Dark Reader Hand Lamp™ (Clare Chemical Research Co.; Dolores, Colo.) to identify undamaged areas of the leaf that were successfully expressing the YFP reporter proteins. […]

[2] = system: chloroplasts of maize protoplasts; test: Maize protoplast transient assay: microscopy of TraP8-YFP; assay type: cell-based, Zea mays; settings: B104 maize protoplasts, 12 hours after transfection
Excerpt: The Trap8 chimeric chloroplast transit peptide-encoding polynucleotide sequence (SEQ ID NO:5) and the linker-encoding polynucleotide sequence (SEQ ID NO:7) were cloned upstream of the yellow fluorescent protein gene and incorporated into construct pDAB106597 (FIG. 8) for testing via the maize protoplast transient in planta assay. The resulting constructs contained a single plant transcription unit (PTU). The PTU was comprised of the Zea mays Ubiquitin 1 promoter (ZmUbi1 promoter; Christensen, A., Sharrock R., and Quail P., (1992) Maize polyubiquitin genes: structure, thermal perturbation of expression and transcript splicing, and promoter activity following transfer to protoplasts by electroporation, Plant Molecular Biology, 18:675-689), TraP-yellow fluorescent protein fusion gene (TraP8-YFP; US Patent App. 2007/0298412), and Zea mays Peroxidase 5 3′ untranslated region (ZmPer5 3′UTR; U.S. Pat. No. 6,384,207). The constructs were confirmed via restriction enzyme digestion and sequencing.
Seed of Zea mays var. […]
Transfection of 100 to 500 μl of protoplasts (1−5×10^5) was completed by adding the protoplasts to a 2 ml microfuge tube containing about 40 μg of plasmid DNA (pDAB106597), at room temperature. […] Fluorescence of YFP was viewed by microscopy after 12 hours of incubation. […]

B1: TraP8: chimeric chloroplast transit peptide SEQ ID NO:3; N-terminus from Brassica napus EPSPS CTP, C-terminus from Brassica rapa (protein)
chain: MAQSSRICHGVQNPCVIISNLSKSNQNKSPFSVSLKTHQQQRRAYQISSWGLKKSNNGSVIRPVK
modifications: TraP8 chimeric chloroplast transit peptide
notes: N-terminus from Brassica napus EPSPS CTP, C-terminus from Brassica rapa
Localization of YFP fluorescence in tobacco leaf cells [1]: accumulated within the chloroplasts
Localization of YFP fluorescence in maize protoplasts [2]: accumulated within the chloroplasts
